Measured values taken from the nanobody polyreactivity screen of Harvey et al. (2022).

Experiment: yeast display, Sf9 membrane polyspecificity reagent, FACS + sequencing; frameworks hold sequencing errors
Outline: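 Genes from sorted yeast were amplified by colony PCR, read by MiSeq 2 × 250 sequencing and filtered on CDR length. These cells carried a synthetic nanobody library in Saccharomyces cerevisiae BJ5465 and were sorted by FACS into low and high (top ~1%) gates on anti-HA and streptavidin fluorescence. Polyreactivity is labelled according to the gate of origin.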

Sequence	polyreactivity (PSR sort gate)
QVQLVESGGGLVQAGGSLRLSCAASGITFFYNAMGWYRQAPGKERELVAAISTSGGSTHYADSVKGRFTISRDIAKNTVYLQMNSLKPEDTAVYYCAARGRYRLYGYWGQGTQVTVSS	high polyreactivity
QVQLVESGGGLFQAGGSLRLSCAASGRTFQNAMGWYRQAPGKERELVAAISVRGTRTYYADSVKGRFTISRDNAKNTVYLQMNSLKPEDTAVYYCAADRGKATSADDYWGQGTQVTVSW	high polyreactivity
QVQLVESGGGLVQAGGSLRLSCAASGSTSYYYAMGWYRQAPGKERELVAAITTSGGSTYYADSVKGRFTISRDNAKNTVYLQMNSLKPEDTAVYYCATGYLYFTSYRYNYWGQGTQVTVSS	low polyreactivity
QVQLVESGGGLVQAGGSLRLSCAATGGTFYVYAMGWYRQAPGKERELVARITWRGGRTYYADSVKGRFTISRDNAKNTVYLQMYSLKPEDTAVYYCNAEQYSQFDYWGQGTQVTVSS	high polyreactivity
QVQLVESGGGLVQAGGSLRLSCAASGSIFRHYTMGWYRQAPGIERELVAVISSGGNTNYADSVKGRFTISRDNAKNTVYLQMNSLKPEDTAVDDCAARSHRYYSRVNYWGQGTQVTVSS	high polyreactivity
QVQLVESGGGLVQAGGSLRLSCAASGRIFYYYAMRWYRQAPGKERELVATISGIGGSTYYADSVKGRFTISRDNAKNTVYLHMNSLKPEDTAVYYCNADYPTSYPLLKSGFDYWGQGTQVTVSS	low polyreactivity
HVQLVESGGGLVQAGGSLRLSCAASGITFPIYAMGWYRQAPGKEREFVAAINQRGGSTYYADSVKGRFTISRDNAKNTVYLQMNSLKPEDTAVDYCAAENGFNSLSRSGLHYWGQGTQVTVSS	low polyreactivity
QVKLVESGGGLVQAGGSLRLSCAASGSIFWSYAMGWYRQAPGKEREFVPSITGSGGTTTYADSVKGRFTISLDNAKNTVYVQMNSLKPEDTAVYYCNARLHGWYHVYYIYDYWGQGTQVTVSS	low polyreactivity
QVQLVESGGGLVQAGGSLRLSCAASGSTFDVYAMGWYRQAPGKERELVAAIRSSGGSTFYADSVKGRFTISRDNAKNIVYLQMNSLKPEDTAVYYCAARSFVVSGYNKYYEYGYWGQGTQVTVSS	low polyreactivity
QVQLVETGGGLVQAGGSLRLSSAASGRTFYRYAMGWYRQAPGKDRELVATISRSGANTYADSVKGRFTISRDNAKNTVYLQMNSLKPEDTAVYYCNAGQYKGWGRMDYWGQGTQVTVSS	high polyreactivity
QVQLVESGGGLVQAGGSLRLSCAASGSIFRPYAMGWYRQAPGKERVLVAAISRRGGSTYYADSVKGRFTISRDNAKNTVYLQMNSLKPEDTAVYYCAADHSRPSPYGYGYWGQGTQVTVSS	high polyreactivity
QVQLVESGGGLFQAGGSLRLSCAASGSTFRANAMGWYRQAPGKETELVAAISQSGGITYYADSVKVRFTISRDNAKNTVYLQMKSLKPEDTAVYYCAALGYRIIRGRFYSWGQGTQVTVSS	high polyreactivity
QVQLEESGGGLVQAGGSLRLSCAPSGLTFGGNAMGWYRQAPGKERELVAAISSGGSTNYADSVKGRFTISRDNAKNTDFLNMNSLKPEDTAVYYCAARDRPGNYFTEYGYWGQGTQVTVSS	low polyreactivity
QVQLVESGGGLVQAGGSLRLSCAASGSTFDSYAMGWYRQAPGKERELVAALSYNGSSTDYADSVKGRFTISRDNAKNTVDEQMNSLKPEDTAVYYCAAAPGFSAGHHDYWGQGTQVTVSS	low polyreactivity
QVQLVESGGGLVQAGGSLRLSCAASGITFYDYAMGRYRQAPGKERELVAAISGGGITYYADSVKGRFTISRDNAKNTVYLQMNSLKPEDTAVYYCAAVYIAGYGYDYWGQGTQVTVSS	low polyreactivity
QVQLVESGGGLVQAGGSLRLSCAASGRIFYRYAMGWSRPAHGKERELVASISGSGGRTYYADSVKGRFTISRDNAKNTVYLQMNSLKPEDTAVSYCAARIRPSYDWGQGTQVTVSS	high polyreactivity
QVQLVESGGGLVQAGGSLRLSCAASGRTFFHYAMGWYRQAPRKERELVAAISSGGGTYADSVKGRFTISRDNAKNTVYLQMNSLKPEDTAVYYCNADTDSAKSPAYYYWGQGTQVTVSS	low polyreactivity
